Reference: the supplement of paper PMC9942255
Where “and” joins values, the source holds several entries; their conditions need not be identical. Identical values can stand only once.

System: Bacillus subtilis DB104 (SP-AmyQ fusion secretion)
Assay: AmyQ secretion efficiency, weighted average sort bin (1 = best secretion, 10 = worst) (bin number (weighted average, 1-10)); higher = lower secretion efficiency
In short: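 The secretion score gives the average bin number weighted by read frequency and normalised to beads per bin, with low-abundance sequences excluded. Bins were 10 equally populated green/red fluorescence ratio fractions of occupied ~65 nL alginate beads, sorted by large-particle flow cytometry. The beads held fluorescein-starch and about 0.3 cells each of an amyE-integrated B. subtilis DB104 library fusing designed signal peptides to mature AmyQ, and they were grown about 13 h at room temperature and stained with nile red before sorting and Illumina sequencing.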

Sequence	AmyQ secretion efficiency
MKKKQQHSTRRKLIVLLFFSFFGVQPIHAKKQ	5.23
MKKKQQRLALTAAAGLGLTALHSAPAAKAAPL	5.39
MKKKQRAGLTASAIVGTTLVVTPAEAATI	6.45
MKKKQVLALTAAAGLGLTALHSAPAAKAAPL	2.4
MKKKQVMGYTTAAAGLGLTALHSAPAAKAAPL	7.28
MKKKQVMLALTAAAGLGLTAHSAPAAKAAPL	2.01
MKKKQVMLALTAAAGLGLTALAIVSSFVHSAPAAKAAPL	5.73
MKKKQVMLALTAAAGLGLTALGSAPAAKAAPL	2.2
MKKKQVMLALTAAAGLGLTALHAKAAPL	2.9
MKKKQVMLALTAAAGLGLTALHDAPAAKAAPL	2.66
MKKKQVMLALTAAAGLGLTALHKRPAAKAAPL	6.71
MKKKQVMLALTAAAGLGLTALHPGPSAKAAPL	1.84
MKKKQVMLALTAAAGLGLTALHSAPAAKAADD	3.53
MKKKQVMLALTAAAGLGLTALHSAPAAKAAPD	2.15
MKKKQVMLALTAAAGLGLTALHSAPAAKAAPK	1.55
MKKKQVMLALTAAAGLGLTALHSAPAAKADDD	5.2
MKKKQVMLALTAAAGLGLTALHSAPAAKEAPL	6.66
MKKKQVMLALTAAAGLGLTALHSAPAAKGAPL	3.51
MKKKQVMLALTAAAGLGLTALHSAPAAKHAPL	4.9
MKKKQVMLALTAAAGLGLTALHSAPAAKIAPL	6.05
MKKKQVMLALTAAAGLGLTALHSAPAAKLAPL	4.96
MKKKQVMLALTAAAGLGLTALHSAPAAKPAPL	4.99
MKKKQVMLALTAAAGLGLTALHSAPAAKQAPL	4.93
MKKKQVMLALTAAAGLGLTALHSAPAAKSAPL	3.28
MKKKQVMLALTAAAGLGLTALHSAPAAKVAPL	6.92
MKKKQVMLALTAAAGLGLTALHSAPACKAAPL	2.29

Sequence	AmyQ secretion efficiency
MKKKQVMLALTAAAGLGLTALHSAPADKAAPL	5.48
MKKKQVMLALTAAAGLGLTALHSAPAEKAAPL	6.32
MKKKQVMLALTAAAGLGLTALHSAPAFKAAPL	6.7
MKKKQVMLALTAAAGLGLTALHSAPAGKAAPL	5.58
MKKKQVMLALTAAAGLGLTALHSAPAHKAAPL	6.85
MKKKQVMLALTAAAGLGLTALHSAPAIKAAPL	4.18
MKKKQVMLALTAAAGLGLTALHSAPAKKAAPL	5.87
MKKKQVMLALTAAAGLGLTALHSAPALKAAPL	4.89
MKKKQVMLALTAAAGLGLTALHSAPANKAAPL	5.6
MKKKQVMLALTAAAGLGLTALHSAPAPKAAPL	6.78
MKKKQVMLALTAAAGLGLTALHSAPAQKAAPL	5.43
MKKKQVMLALTAAAGLGLTALHSAPARKAAPL	5.26
MKKKQVMLALTAAAGLGLTALHSAPASKAAPL	4.06
MKKKQVMLALTAAAGLGLTALHSAPASVVAVAASAKAAPL	1.02
MKKKQVMLALTAAAGLGLTALHSAPATKAAPL	3.15
MKKKQVMLALTAAAGLGLTALHSAPAVAGAAKAAPL	2.43
MKKKQVMLALTAAAGLGLTALHSAPAVKAAPL	1.99
MKKKQVMLALTAAAGLGLTALKHKKKKAKAAPL	6.6
MKKKQVMLALTAAAGLGLTALVFFHSAPAAKAAPL	2.39
MKKKQVMLALTAAAGLHSAPAAKAAPL	3.17
MKKKQVMLKRKKKKGLGLTALHSAPAAKAAPL	8.05
MKKKQVMLKRTAAAGLGLTALHSAPAAKAAPL	6.55
MKKKQVMLRKKKAAGLGLTALHSAPAAKAAPL	7.14
MKKKQVMTLNSSLALTAAAGLGLTALHSAPAAKAAPL	4.06
MKKKQVSHAIIISVMLSFVIAVFHTIHASERKR	7.08
MKKKQVSHAIIISVMLSFVIAVFHTIHASYLTP	6.98

Sequence	AmyQ secretion efficiency
MKKKQVSHAIIISVMLSFVIAVFHTIHKSELTP	4.63
MKKKQVSHAIIISVMLSFVIAVFRRHRKHASELTP	7.4
MKKKQVSHARSTKTRRQFVIAVFHTIHASELTP	8.17
MKKKRALTLCPAIVGSLLFFTAPASAHVS	3.92
MKKKRKKFVAVAALSTTAFGAHASAKEI	6.1
MKKKRKKGGTGSAIVGTTLVVTPAEAATI	7.88
MKKKRKKIAGVLTVAAAAMTAKMYATAKGN	7.67
MKKKRKRLAAGLTASAIVGTTLVVTPAEAATI	2.55
MKKKRLAAGLTASAIVGTTLVVTPAEAATI	4.26 and 3.28
MKKKRLFIFSAILTLSIFAPNETFAQTA	2.43
MKKKRLLAGALTATVLFGTCAVDVPGIISPKTAEAASQ	1.66
MKKKRLLLATSALTFSLSLVLPLDGHAKAQEV	2.9
MKKKRMSFVAVAALSTTAFGAHASAKEI	4.12
MKKKRRKCSICCAAVLLAGGAAQAEAV	6.1
MKKKRRKLALTAAAGLGLTALHSAPAAKAAPL	2.69
MKKKRRRVLMAFIICLSLILSVLAAPPSGAKAESV	2
MKKKRVMLALTAAAGLGLTALHSAPAAKAAPL	2.47
MKKKSQQQGGVSAVVGSSMAAAPAEAKTI	7.9
MKKKSTVFLSVVLVTTVFLVKQQESVAQAKQL	2.06
MKKKTLSLFVGLMLLIGLLFSGSLPYNPNAAEASSS [wt_amyM]	3.81
MKKKVKIAGVLTVAAAAMTAKMYATAKGN	6.8
MKKLAAGLTASAIVGTTLVVTPAEAATI	2.27
MKKLALTAAAGLGLTALHSAPAAKAAPL	3.02
MKKLCVMMLLFSAIASFPVSAQAKDQ	2.86
MKKLFIFSAILTLSIFAPNETFAQTA	2.72
MKKLILAFILSAAAAVGLFTFGGVQQASAKEL	4

Sequence	AmyQ secretion efficiency
MKKLILAGIALFVFISPLKSHKT	5.8
MKKLIMALVILGALGTSYISADSS	6.77 and 6.15
MKKLIMALVILGALKKRKKKISADSS	8.07
MKKLIMALVILGALRKRYISADSS	7.22
MKKLIMMTGLLFGLTSPAFAAEK	2.43
MKKLIQVMIMFTLLLTMAFSADAADS	4.44
MKKLIVLLFFSFFGVQPIHAKKQ	5.47
MKKLKRKKVILGALGTSYISADSS	7.53
MKKLLAAGIIGLLTVEDDEDDSFAAEK	8.23
MKKLLAAGIIGLLTVEEESPSFAAEK	6.63
MKKLLAAGIIGLLTVFIAVPSFAAEK	2.33
MKKLLAAGIIGLLTVQTDQPSFAAEK	4.21
MKKLLAAGIIGLLTVRKKSPSFAAEK	8.11
MKKLLAAGIIGLLTVRRRKKKSFAAEK	7.21
MKKLLAAGIIGLLTVSIASPAFAAEK	2.44
MKKLLAAGIIGLLTVSIASPCFAAEK	2.42
MKKLLAAGIIGLLTVSIASPGFAAEK	2.84
MKKLLAAGIIGLLTVSIASPGFVFSFAAEK	8.62
MKKLLAAGIIGLLTVSIASPHFAAEK	7.4
MKKLLAAGIIGLLTVSIASPIFAAEK	1.99
MKKLLAAGIIGLLTVSIASPLFAAEK	3.02
MKKLLAAGIIGLLTVSIASPMFAAEK	3.35
MKKLLAAGIIGLLTVSIASPNFAAEK	5.52
MKKLLAAGIIGLLTVSIASPQFAAEK	6.75
MKKLLAAGIIGLLTVSIASPSFAADD	2.83
MKKLLAAGIIGLLTVSIASPSFAASC	1.59

Sequence	AmyQ secretion efficiency
MKKLLAAGIIGLLTVSIASPSFAASD	2.22
MKKLLAAGIIGLLTVSIASPSFARRK	6.83
MKKLLAAGIIGLLTVSIASPSFEAEK	6.63
MKKLLAAGIIGLLTVSIASPSFGAEK	4.39
MKKLLAAGIIGLLTVSIASPSFHAEK	6.26
MKKLLAAGIIGLLTVSIASPSFKAEK	5.02
MKKLLAAGIIGLLTVSIASPSFLAEK	5.65
MKKLLAAGIIGLLTVSIASPSFPAEK	7.88
MKKLLAAGIIGLLTVSIASPSFQAEK	7.82
MKKLLAAGIIGLLTVSIASPSFRAEK	7.12
MKKLLAAGIIGLLTVSIASPSFSAEK	3.02
MKKLLAAGIIGLLTVSIASPSFTAEK	6.63
MKKLLAAGIIGLLTVSIASPSFVAEK	6.79
MKKLLAAGIIGLLTVSIASPSFWAEK	7.9
MKKLLAAGIIGLLTVSIASPSFYAEK	7.71
MKKLLAAGIIGLLTVSIASPTFAAEK	2.52
MKKLLAAGIIGLLTVSIASPVFAAEK	2.43
MKKLLAAGIIGLLTVSIASPWFAAEK	7.98
MKKLLAAGIIGLLTVSIASPYFAAEK	6.19
MKKLLAAGIIGLLTVSSFAAEK	6.74
MKKLLAAGIIGLLTVTLVFLVVLLSIASPSFAAEK	2.43
MKKLLAAGIIGLLTVTSIASPSFAAEK	2.48
MKKLLAAGIIGLLTVTVFVTSIASPSFAAEK	2.51
